{
  "source": "IntAct's records for PubMed 17380128",
  "parents": {"B1": {"name": "Retinoblastoma-associated protein (Homo sapiens), P06400 (parent)", "chain": "MPPKTPRKTAATAAAAAAEPPAPPPPPPPEEDPEQDSGPEDLPLVRLEFEETEEPDFTALCQKLKIPDHVRERAWLTWEKVSSVDGVLGGYIQKKKELWGICIFIAAVDLDEMSFTFTELQKNIEISVHKFFNLLKEIDTSTKVDNAMSRLLKKYDVLFALFSKLERTCELIYLTQPSSSISTEINSALVLKVSWITFLLAKGEVLQMEDDLVISFQLMLCVLDYFIKLSPPMLLKEPYKTAVIPINGSPRTPRRGQNRSARIAKQLENDTRIIEVLCKEHECNIDEVKNVYFKNFIPFMNSLGLVTSNGLPEVENLSKRYEEIYLKNKDLDARLFLDHDKTLQTDSIDSFETQRTPRKSNLDEEVNVIPPHTPVRTVMNTIQQLMMILNSASDQPSENLISYFNNCTVNPKESILKRVKDIGYIFKEKFAKAVGQGCVEIGSQRYKLGVRLYYRVMESMLKSEEERLSIQNFSKLLNDNIFHMSLLACALEVVMATYSRSTSQNLDSGTDLSFPWILNVLNLKAFDFYKVIESFIKAEGNLTREMIKHLERCEHRIMESLAWLSDSPLFDLIKQSKDREGPTDHLESACPLNLPLQNNHTAADMYLSPVRSPKKKGSTTRVNSTANAETQATSAFQTQKPLKSTSLSLFYKKVYRLAYLRLNTLCERLLSEHPELEHIIWTLFQHTLQNEYELMRDRHLDQIMMCSMYGICKVKNIDLKFKIIVTAYKDLPHAVQETFKRVLIKEEEYDSIIVFYNSVFMQRLKTNILQYASTRPPTLSPIPHIPRSPYKFPSSPLRIPGGNIYISPLKSPYKISEGLPTPTKMTPRSRILVSIGESFGTSEKFQKINQMVCNSDRVLKRSAEGSNPPKPLKKLRFDIEGSDEADGSKHLPGESKFQQKLAEMTSTRTRMQKQKMNDSMDTSNKEEK"}},
  "data": [
    {"variants_of": "B1", "settings": "with e2f1_human E2F1, Q01094", "values": [
      {"variant": "S612A", "effect of a mutation on the interaction": "decreasing interaction"}
    ]}
  ]
}
